Experimental data as given in patent US11814435B2, “Therapeutic antibodies and their uses” (PFIZER INC., priority 2015, dated 2023).
Changes are numbered by the printed parent chain.

B1: 2B4: anti-CD3 antibody cloned from mouse hybridoma, expressed as mouse IgG1 (antibody, V domains shown)
VH: EVKLVESGGGLVQPGGSLRLSCATFGFTFTDYYMTWVRQPPGKALEWVAFIRNRARGYTSDHNASVKGRFTISRDNSQNILYLQMNTLRAEDSATYYCARDRPSYYVLDYWGQGTTVTVSS
VL: DIVMSQSPPSLAVSVGDKVTMSCTSSQSLFNSRSRKNYLAWYQQKSGQSPKLLISWASTRESGVPDRFTGSGSGTDFTLTISSVQAEDLAVYYCKQSYDLFTFGSGTKLEIK
modifications: mouse IgG1 constant regions
B2: 1A4: anti-CD3 antibody cloned from mouse hybridoma, expressed as mouse IgG1 (antibody, V domains shown)
VH: QVQLQQSGPDLVKPGASVEISCKASGYSFTTYYLHWVRQRPGQGLEWIGWIFPGSDNTKYNEKFKGKATLTADTSSSTAYMQLSSLTSEDSAVYFCARNRDYYFDYWGQGTTVTVSS
VL: DIVMSQSPSSLAVSAGEKVTMSCKSSQSLLNSRTRKNYLAWYQQKPGQSPKLLIYWASTRASGVPDRFTGSGSGTDFTLTISSVQAEDLAIYYCKQSFILRTFGGGTKLEIK
modifications: mouse IgG1 constant regions
B3: 1C10: anti-CD3 antibody cloned from mouse hybridoma, expressed as mouse IgG1 (antibody, V domains shown)
VH: QVQLQQPGSELVRPGASVILSCKASGYTFTSYWMHWVRQRPGQGLEWIGNIYSGGDTINYDEKFKNKAILTVDTSSSTAYMHLSSLTSEDSAVYYCTRDATSRYFFDYWGQGTTVTVSS
VL: B2 VL with A61E, S82D, A86P, I91V, K95T
modifications: mouse IgG1 constant regions
B4: 7A3: anti-CD3 antibody cloned from mouse hybridoma, expressed as mouse IgG1 (antibody, V domains shown)
VH: EVQLQQSGAELVRPGALVKLSCKGSGFNIKDYYIHWVKQRPEQGLEWIGWIDPENGNNKYDPKFQGKASITADTSSNIAYLQLSSLTSEDTAVYYCARNDNYAFDYWGQGTTVTVSS
VL: B2 VL with M4V, T20I, Q44L, W56S, A61E, A86T, I91V, K95M, I99T
modifications: mouse IgG1 constant regions
B5: h2B4-VH-wt VL_TK: anti-CD3 antibody (antibody, V domains shown)
VH: EVQLVESGGGLVQPGGSLRLSCAASGFTFSDYYMTWVRQAPGKGLEWVAFIRNRARGYTSDHNASVKGRFTISRDNAKNSLYLQMNSLRAEDTAVYYCARDRPSYYVLDYWGQGTTVTVSS
VL: DIVMTQSPDSLAVSLGERATINCKSSQSLFNVRSRKNYLAWYQQKPGQPPKLLISWASTRESGVPDRFSGSGSGTDFTLTISSLQAEDVAVYYCKQSYDLFTFGSGTKLEIK
B6: h2B4-VH-yaps VL_TK: anti-CD3 antibody (antibody, V domains shown)
VH: B5 VH with H62Y, N63A, A64P
VL: B5 VL
B7: h2B4-VH-hnps VL_TK: anti-CD3 antibody (antibody, V domains shown)
VH: B5 VH with A64P
VL: B5 VL
B8: h2B4-VH-yads VL_TK: anti-CD3 antibody (antibody, V domains shown)
VH: B5 VH with H62Y, N63A, A64D
VL: B5 VL
B9: h2B4-VH-yaes VL_TK: anti-CD3 antibody (antibody, V domains shown)
VH: B5 VH with H62Y, N63A, A64E
VL: B5 VL

Columns and labels:
[1] = tested on: Molp8 LucGFP orthotopic myeloma; experiment: Anti-BCMA/CD3 bispecific in combination with standard of care in orthotopic Molp8 tumor model; format: in vivo, NSG mice; details: FIG. 14; bispecific 0.3 mg/kg; bortezomib 1 mg/kg i.p.; lenalidomide 50 mg/kg oral gavage
Experimental: In vivo efficacy study of BCMA bispecifics was performed with Molp8, expressing luciferase and GFP, orthotopic model. Two million Molp8 LucGFP cells were injected intravenously through the tail vein into 6-8 weeks old female NSG animals. Intraperitoneal injection of D-luciferin (Regis Technologies, Morton Grove, Ill.) (200 uL per animal at 15 mg/mL), followed by anesthesia with isofluorane and subsequent whole body bioluminescence imaging (BLI) enabled monitoring of tumor burden. Bioluminescent signals emitted by the interaction between luciferase expressed by the tumor cells and luciferin were captured by imaging using an IVIS Spectrum CT (Perkin Elmer, MA) and quantified as total flux (photons/sec) using Living Image 4.4 (Caliper Life Sciences, Alameda, Calif.). The animals were injected through bolus tail vein on day 7 with 20 million expanded T cells as described in Example 18. Two days post T cell injection, mice were imaged and randomized into five groups of seven mice with an average of 17E6 total flux/group: 1) Combo_Rd4_0.6 nM_C29, 0.3 mg/kg, 2) Combo_Rd4_0.6 nM_C29, 0.3 mg/kg and 1 mg/kg bortezomib, 3) Combo_Rd4_0.6 nM_C29, 0.3 mg/kg and 50 mg/kg lenalidomide, 4) 1 mg/kg bortezomib and 50 mg/kg lenalidomide and 5) vehicle. […]

OPM2 cells = experiment: Anti-BCMA/CD3 bispecific with lenalidomide, carfilzomib or doxorubicin, T cell killing of OPM2 (flow cytometry live cells); format: cell-based; details: FIGS. 15A-15C; 1.56 nM carfilzomib, 195 nM lenalidomide, 6.25 nM doxorubicin; three days
Experimental: OPM2 and CD3+ T cells were first incubated with the standard of care for two hours at 37°. 1.56 nM carfilzomib and 6.25 nM doxorubicin were diluted in PBS containing 0.02% DMSO. Lenalidomide was diluted in PBS containing 0.1% DMSO at 195 nM. Cells were treated with 10-fold serially diluted bispecific antibody.

cynomolgus PBMC = experiment: PBMC T cell proliferation by 3H-thymidine incorporation; format: cell-based; details: FIG. 10A/10B, 2 day cultures
Experimental: (§1) Human anti-CD3 antibodies were cloned from immunized mouse, expressed as mouse IgG1, and purified by Protein A affinity beads. Human/Cynomolgus peripheral blood mononuclear cells (hu/cyPBMC) were prepared by Ficoll (Density: 1.083 g/mL, GE) density gradient centrifugation from blood filters obtained from local blood banks. Erythrocytes were removed by incubating in LCK buffer (155 mM NH4Cl, 10 mM KHCO3, […]; Gibco) for 3 minutes at room temperature. Cells were centrifuged for 5 min at 600 g. The supernatant containing the lysed erythrocytes was discarded, and the PBMC were washed twice in 50 ml 1×PBS/1% BSA/1 mM EDTA. The pelleted cells were adjusted to 10^7 cells per ml in culture media, X-VIVO-15, serum free media (Lonza,), and the PBMC were seeded as 10^6 (100 ul) per-well to round bottom 96 well tissue culture plates. Selected Abs are 10× serial diluted from 1000 ng to 1 ng per mL for mixing with human PBMC and 5× serial diluted from 5000 ng to 200 ng per mL for mixing with cynomolgus PBMC. For analysis of PBMC T cell proliferation by ^3H-thymidine incorporation, 2 day cultures were performed in triplicate. During the final 16 h of culture ^3H-thymidine ([…]) was added, and incorporation was measured. Cells are harvested and lysed, DNA is captured onto glass-fiber filter. Radioactivity (cpm) as measure for proliferation by counting on a scintillation beta-counter.

human PBMC = experiment: as above; format: cell-based; details: FIG. 10A/10B, 2 day cultures
Experimental: as §1

bsc_hCD3ed = bsc_hCD3ed (Homo sapiens, UniProt P07766); experiment: Biacore kinetics anti-xCD3e ab/bsc_hCD3ed; format: binding; details: data fitted from 80 nM-0.64 nM
hCD3 (human CD3) = hCD3 (human CD3) (Homo sapiens, UniProt P07766); experiment: Kinetics and affinity of hCD3/human IgG interactions by SPR (Bio-Rad Proteon XPR36); format: binding; details: 37° C.
Experimental: All experiments were performed on a Bio-Rad Proteon XPR36 surface Plasmon resonance biosensor (Bio-Rad, Hercules, Calif.). An array of anti-CD3 antibodies was prepared using an amine-coupling method on a Bio-Rad GLC Sensor Chip similar to that described in Abdiche, et al., Anal. Biochem. 411, 139-151 (2011). The analysis temperature for the immobilization was 25° C. and the running buffer was HBS-T+(10 mM HEPES, 150 mM NaCl, 0.05% Tween-20, pH 7.4). Channels were activated in the analyte (horizontal) direction by injecting a mixture of 1 mM ECD and 0.25 mM NHS for 3 minutes at a flow rate of 30 μL/min. IgGs were immobilized on the activated spots by injecting them in the ligand (vertical) direction at 20 μg/mL in 10 mM Acetate pH 4.5 buffer for 1.5 minutes at […]. The activated surfaces were blocked by injecting 1M ethanolamine, pH 8.5 in the analyte direction for 3 minutes at 30 μL/min.
The analysis temperature for the hCD3 binding analysis was 37° C. or 25° C. in a running buffer of HBS-T+, supplemented with 1 mg/mL BSA. A kinetic titration method was employed for the interaction analysis as described in Abdiche, et al. The hCD3 (human CD3) analyte was injected in the analyte direction using a series of injections from low to high concentration. The concentrations used were 0.08 nM, 0.4 nM, 2 nM, 10 nM and 50 nM (a 5-membered series, with a 5-fold dilution factor and top concentration of 50 nM). The association time for a given analyte dilution was two minutes. Immediately after the 50 nM hCD3 injection, dissociation was monitored for 2 hours. Prior to the hCD3 analyte injections, buffer was injected 5 times using the same association and dissociation times at the hCD3 analyte cycles to prepare a buffer blank sensorgram for double-referencing purposes (double referencing as described in Myszka, J. Mol. Recognit. 12, 279-284 (1999).
The sensorgrams were double-referenced and fit to a 1:1 Langmuir with mass transport kinetic titration model in BIAevaluation Software version 4.1.1 (GE Lifesciences, Piscataway, N.J.).

bsc_hCD3ed, sequence (P07766 23-126 limits assumed): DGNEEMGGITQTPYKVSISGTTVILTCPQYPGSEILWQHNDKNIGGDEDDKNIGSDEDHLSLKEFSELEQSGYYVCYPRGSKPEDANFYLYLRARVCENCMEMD
bsc_hCD3ed, sequence (P04234 22-105 partner limits assumed): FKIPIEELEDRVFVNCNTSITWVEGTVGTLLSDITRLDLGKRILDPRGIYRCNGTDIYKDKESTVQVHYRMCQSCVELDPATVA
hCD3 (human CD3), sequence (P07766 23-126 limits assumed): as the sequence (P07766 23-126 limits assumed) above
hCD3 (human CD3), sequence (P04234 22-105 partner limits assumed): as the sequence (P04234 22-105 partner limits assumed) above

Row | Molecule | Thymidine incorporation (cynomolgus PBMC) | Thymidine incorporation (human PBMC) | ka huCD3ed @37° C. (hCD3 (human CD3)) [M⁻¹ s⁻¹] | kd huCD3ed @37° C. (hCD3 (human CD3)) [s⁻¹] | also measured
1 | CC(C)C[C@H](NC(=O)[C@H](Cc1ccccc1)NC(=O)c1cnccn1)B(O)O [bortezomib, [(1R)-3-methyl-1-[[(2S)-1-oxo-3-phenyl-2-[(pyrazinylcarbonyl)amino]propy-l]amino]butyl]boronic acid] |  |  |  |  | effect of combining on the efficacy of the anti-BCMA/CD3 bispecific antibody [1]: did not have a negative effect
2 | CC(C)C[C@H](NC(=O)[C@H](CCc1ccccc1)NC(=O)CN1CCOCC1)C(=O)N[C@@H](Cc1ccccc1)C(=O)N[C@@H](CC(C)C)C(=O)[C@@]1(C)CO1 [carfilzomib] |  |  |  |  | effect on the function of Combo_Rd4_0.6 nM_C29-CD3 bispecific antibody on OPM2 cells (OPM2 cells): do not have a negative effect
3 | COc1cccc2c1C(=O)c1c(O)c3c(c(O)c1C2=O)C[C@@](O)(C(=O)CO)C[C@@H]3O[C@H]1C[C@H](N)[C@H](O)[C@H](C)O1 [doxorubicin] |  |  |  |  | effect on the function of Combo_Rd4_0.6 nM_C29-CD3 bispecific antibody on OPM2 cells (OPM2 cells): do not have a negative effect
4 | Nc1cccc2c1CN(C1CCC(=O)NC1=O)C2=O (stereo not drawn) [lenalidomide] |  |  |  |  | effect on the function of Combo_Rd4_0.6 nM_C29-CD3 bispecific antibody on OPM2 cells (OPM2 cells): do not have a negative effect; effect of combining on the efficacy of the anti-BCMA/CD3 bispecific antibody [1]: did not have a negative effect
5 | B1 | had Thymidine incorporation reading | had Thymidine incorporation reading |  |  | ka (bsc_hCD3ed): 3.74E+05; kd (bsc_hCD3ed): 2.74E−03
6 | B2 | had Thymidine incorporation reading | had Thymidine incorporation reading |  |  | 
7 | B3 | had Thymidine incorporation reading | had Thymidine incorporation reading |  |  | ka (bsc_hCD3ed): 2.96E+05; kd (bsc_hCD3ed): 2.37E−03
8 | B4 | had Thymidine incorporation reading | had Thymidine incorporation reading |  |  | 
9 | B5 |  |  | 380000 | 0.014 | 
10 | B6 |  |  | 250000 | 0.023 | 
11 | B7 |  |  | 390000 | 0.016 | 
12 | B8 |  |  | 240000 | 0.021 | 
13 | B9 |  |  | 230000 | 0.023 | 
